We go through five substances from PMC2625307.

One may read the Kd as the constant that tells how readily two partners part at equilibrium. Low values mean higher affinity, high ones lower affinity. Broadly, the koff is the first-order rate constant of dissociation. Higher therefore signals fast dissociation. Usually kon stands for a measure of how fast the partners come together.

In test [1] the target is SIVcpz GAB-1 fl envelope (SIVcpz (P.t.t)) (UniProt P17281).
Test [2] deals with HIV-1 MN-25 envelope (HIV-1 group M).
In test [3] the target is HIV-1 WEAU 16-8M envelope (HIV-1 group M).
For test [4], the target named is HIV-1 SUMA d736-68 envelope (HIV-1 group M).
Test [5] concerns the target HIV-1 MN-8 envelope (HIV-1 group M).
Test [6] deals with SIVcpz GAB-2 62 fl envelope (SIVcpz (P.t.t)).
For test [7], the target named is HIV-1 NL4.3 envelope (HIV-1 group M).
Test [8] concerns the target HIV-1 SUMA d736-73 envelope (HIV-1 group M).
Test [9] has as its target CD4M33. The test can be described thus: SPR. In general terms: Surface plasmon resonance follows binding to a sensor surface in real time, without labels.
Test [10] concerns the target [Phe^23]M33. Put plainly: SPR.
Test [11] has as its target CD4M47. The test can be described thus: SPR.
Test [12] deals with [Phe^23]M47. The test can be described thus: SPR.

SIVcpz GAB-1 fl envelope (SIVcpz (P.t.t)), sequence (P17281 32-854): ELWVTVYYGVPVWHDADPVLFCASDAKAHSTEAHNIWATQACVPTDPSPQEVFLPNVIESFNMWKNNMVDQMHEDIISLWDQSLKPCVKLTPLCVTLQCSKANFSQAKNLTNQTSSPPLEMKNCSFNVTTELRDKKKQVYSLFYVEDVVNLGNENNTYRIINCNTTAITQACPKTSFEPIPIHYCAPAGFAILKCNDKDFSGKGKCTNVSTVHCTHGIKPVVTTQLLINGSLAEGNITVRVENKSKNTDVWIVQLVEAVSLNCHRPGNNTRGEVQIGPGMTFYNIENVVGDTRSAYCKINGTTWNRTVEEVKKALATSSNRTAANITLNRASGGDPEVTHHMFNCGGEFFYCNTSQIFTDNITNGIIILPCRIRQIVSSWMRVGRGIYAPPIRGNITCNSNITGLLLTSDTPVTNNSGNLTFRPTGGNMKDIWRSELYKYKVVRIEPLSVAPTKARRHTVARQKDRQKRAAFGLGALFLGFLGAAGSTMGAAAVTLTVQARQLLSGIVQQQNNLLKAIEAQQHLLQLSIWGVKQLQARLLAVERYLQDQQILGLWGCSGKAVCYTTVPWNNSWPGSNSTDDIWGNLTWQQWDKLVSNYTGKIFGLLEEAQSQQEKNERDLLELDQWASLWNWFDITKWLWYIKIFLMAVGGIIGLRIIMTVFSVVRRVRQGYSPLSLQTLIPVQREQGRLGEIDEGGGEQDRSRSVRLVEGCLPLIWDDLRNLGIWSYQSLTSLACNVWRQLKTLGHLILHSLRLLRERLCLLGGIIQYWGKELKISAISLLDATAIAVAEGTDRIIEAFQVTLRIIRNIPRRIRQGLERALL

Take CD4M33 (designed binder): the IC50 of neutralisation, HIV-entry assay on JC53BL-13 indicator cells turned out to be 340 nM in test [1]; 350 nM in test [2]; 85 nM in [3]; 4 nM in test [4]; 34 nM in [5]; 400 nM in test [6]. Besides, the IC50 of neutralisation, HIV-entry assay on JC53BL-13 indicator cells in test [7] stood at 5 nM; in test [8] it was 480 nM.
For [Phe^23]M33 (designed binder), the IC50 of neutralisation, HIV-entry assay on JC53BL-13 indicator cells was determined as 350 nM in test [1]; 3600 nM in test [2]; 130 nM in test [3]; 85 nM in [5]; 1000 nM in test [6]; 13 nM in test [7]. Further, the IC50 of neutralisation, HIV-entry assay on JC53BL-13 indicator cells in [8] was determined as 8500 nM.
For “YU2 gp120 (from UniProt P35961 32-498) (natural protein)”, the Kd in test [9] came to 12.5 nM; in [10], 35.1 nM; in test [11], 2.12 nM; in test [12], 3.87 nM. For the same substance, the koff worked out at 0.00272 s⁻¹ in test [9], 0.00475 s⁻¹ in [10], 0.000741 s⁻¹ in test [11] and 0.000427 s⁻¹ in [12]. The kon in [9] turned out to be 218000 M⁻¹ s⁻¹; in test [10], 135000 M⁻¹ s⁻¹; in test [11] it was 349000 M⁻¹ s⁻¹; in test [12], 110000 M⁻¹ s⁻¹.
For the substance CD4M47 (designed binder), the IC50 of neutralisation, HIV-entry assay on JC53BL-13 indicator cells worked out at 150 nM in test [1]; 150 nM in test [2]; 64 nM in [3]; 3 nM in test [4]; 11 nM in [5]; 230 nM in test [6]. The IC50 of neutralisation, HIV-entry assay on JC53BL-13 indicator cells was 3 nM in test [7] and 370 nM in [8].
Take [Phe^23]M47 (designed binder): the IC50 of neutralisation, HIV-entry assay on JC53BL-13 indicator cells was determined as 69 nM in test [1]; 320 nM in [2]; 47 nM in test [3]; 7 nM in test [4]; 15 nM in [5]; 290 nM in test [6]. For the same substance, the IC50 of neutralisation, HIV-entry assay on JC53BL-13 indicator cells was 4 nM in test [7] and 950 nM in test [8].
